Test results from the DeepSol protein solubility set.

test: soluble on expression in E. coli; label from the status in PepcDB or PDB records

Row | Sequence | soluble on expression in E. coli
1 | MGSDKIHHHHHHMRTYRLVIACPDRVGIVAKVSNFLALYNGWINEASHHSDEQSGWFFMRHEIRAESLPFGIEAFREAFAPIAEEFSMTWRITDSAQKKRVVLMASRESHCLADLLHRWHTDELDCEIPCVISNHNDLRSMVEWHGIPFFHVPVDPKDKAPAFAEVSRLVQEHAADVVVLARYMQILPPQLCRDYAEKVINIHHSFLPSFVGAKPYHQAALRGVKLIGATCHYVTEELDAGPIIEQDVVRVSHADSIEDMVRFGRDVEKMVLARGLRYHLEDRVLVHGNKTVVFD | not soluble
2 | MLTPTPDSSPRSTSSPSQSKNGSFTPRTANILKPLMSPPSREEIMATLLDHD | soluble
3 | SDLSWIKPGKVAWDWWNDWNLDGVDFVTGVNNPTYKAYIDFASANGIEYVILDEGWAVNLQADLMQVVKEIDLKELVDYAASKNVGIILWAGYHAFERDMENVCRHYAEMGVKGFKVDFMDRDDQEMTAFNYRAAEMCAKYKLILDLHGTHKPAG | not soluble
4 | MAGKLIANLIVMGSGIIGRAMLQAYRKALDNANKTGVAHETINNIRRASKTMTEQEARQILGVSEQSTWEEIAQRYDNLFERNAKSGSFYLQSKVHRAKECLENVYQKNKQDGTPP | soluble
5 | MGHHHHHHSHMSEETATSDNDNSYARVRAVVMTRDDSSGGWLPLGGSGLSSVTVFKVPHQEENGCADFFIRGERLRDKMVVLECMLKKDLIYNKVTPTFHHWKIDDKKFGLTFQSPADARAFDRGIRRAIEDISQGCPESK | soluble
6 | RTDTIMVLNVGNKDKKIKMVSFMRDTLVNIKGVSADNYSYDNKLNSAFNIGEQDNNQGAELMRQTLKRNFDIDIKYYVMVDFQTFAEAIDTLFPNGVEINAKFATVGGEAVDSVEVPDDLNMKDGVVPNQTISVGKQKMDGRTLLNYARFRKDDEGDFGRTKRQQQVMSAIMSQIKD | not soluble
7 | MHAIILTMRVGIVGFGNMGQAFALCFSKKLGKENIIVTDKVQEKRNLATEMGIAFASDVKFLADNSDVVLVAVKPKDSQEVLQKLKDYKGIILSIMAGVSIEKMEKILGKDKKIVRVMPNVNVAVGSGVMAITDNGNLSEEERSKVEELLLSCGTLYRIEERLFDAFTALAGSGPAFVFSFIDALALAGVHQGFSYEQALRIALDTVMGSAKLLKEFQVNPNELIAKVTSPGGTTIEGIKYLEEKGFKGTVMECINRTSQKAKKLLEHHHHHH | not soluble
8 | MARKEAKMLYIFDLGNVIVDIDFNRVLGAWSDLTRIPLASLKKSFHMGEAFHQHERGEISDEAFAEALCHEMALPLSYEQFSHGWQAVFVALRPEVIAIMHKLREQGHRVVVLSNTNRLHTTFWPEEYPEIRDAADHIYLSQDLGMRKPEARIYQHVLQAEGFSPSDTVFFDDNADNIEGANQLGITSILVKDKTTIPDYFAKVLC | soluble
9 | MNRTPSLHTKEKKGFIDMHTMWKGSISFGLVNIPIKLYAATEDKDIKLRSLHKEDHAPIKYEKVCTNCEKTLSPDEIVKGYEYVKGKYVVLTDEDLKSLKQEHEEKAVEIVDFVQLQEIDPIYFNRSYFVGPGDNGTKAYTLLREALRSTGKIGIANMTIRSKQQLAILRVYENCIVMESIHYPDEVRS | not soluble
10 | MQTSPEREAVIIRSGNSKILNTRSLMSDSRPEVLTEEDVLRLFPVLGGERRLTRRLLKALKITDINAVHARHINLRGAEFAHAALTDPAINVCYRLHGAEHLEEMRKGGAFTTVSNHPFGSLDGIMLIDIIGSVRPDYSVLVNGFLSMISCLRDSFIPVAPLKGMAGGLDSKHNVSGVKEVLNRLQNGQPVGFFPAGGISVYKGNRNRVMDSEWQASCAKMILVSQVPVYPIFFSGRNSWYFHFLGWLSWAIRTPRIPAELFNKRGHIFDVYIGDPIPPETIARFEKNPRELALFLYDRTYRLAPGHKKNK | not soluble
11 | MAHHHHHHMGADIKLLLIDFDGTLFVDKDIKVPSENIEAIKEAIEKGYMVSICTGRSKVGILSAFGEENLKKMNFYGMPGVYINGTIVYDQIGYTLLDETIETDVYAELISYLVENNLVNQTIFHRGESNYVTEDNKYSDFLQKMYSENRSIIIRHNEMLKYRTMNKLMIVLDPSESKTVIGNLKQKFKNKLTIFTTYNGHAEVNKLGHDKYTGINYLLKHYNISNDQVLVVGDAENDIAMLSHFKYSFAVANATNSAKSHAKCVLPLSHKEGAVAYLLKKVFDLKK | not soluble
12 | FQGNPCECPRALHRVCGSDGNTYSNPCMLTCAKHEGNPDLVQVHEGPCDEHDHDF | soluble
